{
  "source": "paper PMC8440430",
  "about": "(Current biology : CB, 2021)",
  "key": {"[1]": {"molecular_target": "FLAG-RIT1 protein (full-length recombinant RIT1) (human, UniProt Q92963 1-219)", "sequence (Q92963 whole entry)": "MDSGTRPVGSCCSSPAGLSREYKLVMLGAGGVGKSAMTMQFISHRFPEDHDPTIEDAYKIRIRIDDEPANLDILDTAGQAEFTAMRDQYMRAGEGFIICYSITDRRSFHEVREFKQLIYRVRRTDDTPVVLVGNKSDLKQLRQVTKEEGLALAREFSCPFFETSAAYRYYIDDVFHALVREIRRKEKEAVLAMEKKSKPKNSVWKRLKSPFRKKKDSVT", "test": "pull-down"}, "[2]": {"molecular_target": "MAD2 WT (recombinant, TEV-cleaved) (human, UniProt Q13257 1-205)", "test": "SEC"}, "[3]": {"molecular_target": "His6-RIT1 (human, UniProt Q92963 1-219)", "sequence (Q92963 whole entry)": "as above", "test": "pull-down"}, "[4]": {"molecular_target": "His6-MAD2 (human, UniProt Q13257 1-205)", "test": "pull-down"}},
  "data": [
    {"binder": "GST-MAD2 Loop-less (LL) (natural protein, human) MALQLSREQGITLRGSAEIVAEFFSFGINSILYQRGIYPSETFTRVQKYGLTLLVTTDLELIKYLNNVVEQLKDWLYKCSVQKLVVVISNIESGEVLERWQFDIECDKGSGEKSQKAIQDEIRSVIRQITATVTFLPLLEVSCSFDLLIYTDKDLVVPEKWEESGPQFITNSEEVRLRSFTTTIHKVNSMVAYKIPVND", "values": [
      {"measurement": "binding result", "setting": "[1]", "value": "binds"}
    ]},
    {"binder": "SVWKRLKSPFRKKKD (peptide, UniProt Q92963 202-216, looked up)", "note": "[RIT1 (202-216) peptide]", "values": [
      {"measurement": "binding result", "setting": "[2]", "value": "binds"}
    ]},
    {"binder": "GST-RGL3 RBD (604-703) (domain or fragment, UniProt Q3MIN7 604-703, looked up) IPLPAQQSSEARVIRVSIDNDHGNLYRSILLTSQDKAPSVVRRALQKHNVPQPWACDYQLFQVLPGDRVLLIPDNANVFYAMSPVAPRDFMLRRKEGTRN", "values": [
      {"measurement": "binding result", "setting": "[3]", "value": "binds"}
    ]},
    {"binder": "EHQKAWALNLNGFDVEEAKILRLSGKPQ (domain or fragment, UniProt Q12834 111-138, looked up)", "note": "[GST-CDC20 111-138]", "values": [
      {"measurement": "binding result", "setting": "[4]", "value": "binds"}
    ]}
  ]
}
